Data published in patent US20240158510A1 (GOVERNING COUNCIL OF THE UNIVERSITY OF TORONTO, published 2024).
Where two headings read alike, the source gives them in different places. One block for each binder: values may come before it.

Assays:
[1] = molecular target: T1, integrin αvβ8 expressed on CHO cells (UniProt P06756 31-1048; P26012 43-769, limits assumed); assay: flow cytometry titration on AvB8 CHO cells
T1 construct: whole, on cells
Protocol: (§1) Adherent cells were brought into suspension using PBS supplemented with 10 mM ethylenediaminetetraacetic acid (EDTA). The cells were washed with PBS, resuspended in PBS supplemented with 1% BSA, and incubated for 15 minutes at 4° C. The cells were labelled with 50 μl of Fab-phage culture supernatant, or 500 nM Fab, or IgG for 30 minutes at 4° C., then washed with PBS and resuspended in PBS supplemented with 1% BSA. Next, the cells were labelled with anti-Fab (for Fab-phage), or anti-Flag (for Fabs) or anti-Fc (for IgGs) conjugated Alexa-488 secondary Ab according to manufacturer's instructions. Data were collected using a CytoFLEX-S flow-cytometer using a 488-nm laser with 530/25 nm filter settings. The cells were analyzed in PBS, and all acquired live events were greater than 10,000 cells per sample. Quantitation analysis was carried out using FlowJo v10.2 Software. For Ab cellular titration analysis, the Abs were added to antigen positive cells in duplicate samples from a range of 500 pM to 1 μM. The mean fluorescence signal values were subtracted from the control antigen negative cells signals, and EC50 determined using Graph-pad Prism, where x is the Fab concentration: […]

[2] = molecular target: T2, integrin αvβ3 expressed on CHO cells (UniProt P06756 31-1048; P05106 27-788, limits assumed); assay: flow cytometry titration on AvB3 CHO cells
T2 construct: whole, on cells
Protocol: as §1

[3] = molecular target: T3, integrin αvβ5 expressed on CHO cells (UniProt P06756 31-1048; P18084 24-799, limits assumed); assay: cell-based or functional assay
[4] = molecular target: T4, integrin αvβ6 expressed on CHO cells (UniProt P06756 31-1048; P18564 22-788, limits assumed); assay: cell-based or functional assay
[5] = molecular target: T2, integrin αvβ3 expressed on CHO cells; assay: cell-based or functional assay
[6] = molecular target: T5, integrin αvβ1 expressed on CHO cells (UniProt P06756 31-1048; P05556 21-798, limits assumed); assay: cell-based or functional assay
[7] = molecular target: T1, integrin αvβ8 expressed on CHO cells; assay: cell-based or functional assay
[8] = molecular target: T5, integrin αvβ1 expressed on CHO cells; assay: flow cytometry titration on AvB1 CHO cells
Protocol: as §1

[9] = molecular target: T3, integrin αvβ5 expressed on CHO cells; assay: flow cytometry titration on AvB5 CHO cells
Protocol: as §1

[10] = molecular target: T5, integrin αvβ1 expressed on CHO cells; assay: cell-based or functional assay; remark: listed apart in the source
[11] = molecular target: T4, integrin αvβ6 expressed on CHO cells; assay: flow cytometry titration on AvB6 CHO cells
Protocol: as §1

[12] = molecular target: T5, integrin αvβ1 expressed on CHO cells; assay: flow cytometry titration on integrin-αvβ1 CHO cells (curves in FIG. 12K)
Protocol: as §1

[13] = molecular target: T5, integrin αvβ1 expressed on CHO cells; assay: flow cytometry titration on integrin-αvβ1 CHO cells; binder taken from the context of FIG. 10 and Example 2
Protocol: as §1

[14] = molecular target: T3, integrin αvβ5 expressed on CHO cells; assay: cell-based or functional assay; remark: listed apart in the source
[15] = molecular target: T2, integrin αvβ3 expressed on CHO cells; assay: cell-based or functional assay; remark: listed apart in the source
[16] = molecular target: T5, integrin αvβ1 expressed on CHO cells; assay: cell-based or functional assay; remark: listed apart in the source
[17] = molecular target: T1, integrin αvβ8 expressed on CHO cells; assay: cell-based or functional assay; remark: listed apart in the source
[18] = molecular target: T5, integrin αvβ1 expressed on CHO cells; assay: cell-based or functional assay; remark: listed apart in the source
[19] = molecular target: T5, integrin αvβ1 expressed on CHO cells; assay: cell-based or functional assay; remark: listed apart in the source

T2 sequence (P06756 31-1048 limits assumed, chain 1 of 2): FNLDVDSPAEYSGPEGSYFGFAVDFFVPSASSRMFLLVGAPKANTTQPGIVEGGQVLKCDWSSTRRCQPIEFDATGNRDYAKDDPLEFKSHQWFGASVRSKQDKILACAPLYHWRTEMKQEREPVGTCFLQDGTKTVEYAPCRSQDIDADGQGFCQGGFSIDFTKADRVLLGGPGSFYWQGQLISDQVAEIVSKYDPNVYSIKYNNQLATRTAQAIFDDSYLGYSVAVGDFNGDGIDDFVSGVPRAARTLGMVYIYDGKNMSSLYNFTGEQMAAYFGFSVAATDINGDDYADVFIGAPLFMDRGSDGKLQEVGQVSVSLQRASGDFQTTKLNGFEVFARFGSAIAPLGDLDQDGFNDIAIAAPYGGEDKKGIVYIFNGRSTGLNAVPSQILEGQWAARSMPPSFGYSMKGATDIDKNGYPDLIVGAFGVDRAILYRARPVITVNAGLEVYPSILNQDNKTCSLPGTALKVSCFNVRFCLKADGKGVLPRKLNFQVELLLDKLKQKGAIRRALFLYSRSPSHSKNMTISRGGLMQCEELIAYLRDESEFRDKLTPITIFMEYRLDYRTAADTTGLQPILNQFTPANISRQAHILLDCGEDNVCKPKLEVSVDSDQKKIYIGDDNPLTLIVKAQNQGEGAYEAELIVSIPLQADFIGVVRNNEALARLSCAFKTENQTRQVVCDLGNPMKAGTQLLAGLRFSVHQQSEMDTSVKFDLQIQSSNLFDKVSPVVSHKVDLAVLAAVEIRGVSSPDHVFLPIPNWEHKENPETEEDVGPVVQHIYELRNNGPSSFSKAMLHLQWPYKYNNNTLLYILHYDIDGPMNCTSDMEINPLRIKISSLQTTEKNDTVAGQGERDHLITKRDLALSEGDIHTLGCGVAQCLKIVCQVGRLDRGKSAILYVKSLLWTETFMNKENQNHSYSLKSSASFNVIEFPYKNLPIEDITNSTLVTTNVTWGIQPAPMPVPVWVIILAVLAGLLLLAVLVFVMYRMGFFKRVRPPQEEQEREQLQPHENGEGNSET
T2 sequence (P05106 27-788 limits assumed, chain 2 of 2): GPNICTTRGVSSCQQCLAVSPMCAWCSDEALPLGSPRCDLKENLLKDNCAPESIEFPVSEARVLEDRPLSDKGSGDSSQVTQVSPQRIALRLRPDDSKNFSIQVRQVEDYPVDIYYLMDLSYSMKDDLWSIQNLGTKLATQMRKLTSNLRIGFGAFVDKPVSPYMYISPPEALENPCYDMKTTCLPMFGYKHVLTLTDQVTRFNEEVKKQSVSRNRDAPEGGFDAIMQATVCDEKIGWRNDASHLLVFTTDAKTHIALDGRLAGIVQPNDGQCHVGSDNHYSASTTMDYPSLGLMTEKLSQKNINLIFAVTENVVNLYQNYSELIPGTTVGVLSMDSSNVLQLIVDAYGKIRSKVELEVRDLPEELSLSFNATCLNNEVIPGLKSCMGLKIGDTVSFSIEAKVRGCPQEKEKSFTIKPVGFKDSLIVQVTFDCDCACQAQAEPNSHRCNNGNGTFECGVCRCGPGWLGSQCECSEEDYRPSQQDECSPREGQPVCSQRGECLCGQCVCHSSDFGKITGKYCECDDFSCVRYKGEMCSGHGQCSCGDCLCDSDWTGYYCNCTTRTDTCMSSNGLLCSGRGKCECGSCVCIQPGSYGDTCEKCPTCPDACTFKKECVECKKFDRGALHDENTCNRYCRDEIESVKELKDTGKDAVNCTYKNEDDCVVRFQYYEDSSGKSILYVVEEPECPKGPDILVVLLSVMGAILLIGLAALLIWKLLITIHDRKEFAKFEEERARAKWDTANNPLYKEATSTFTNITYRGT
T3 sequence (P06756 31-1048 limits assumed, chain 1 of 2): as the sequence (P06756 31-1048 limits assumed, chain 1 of 2) above
T3 sequence (P18084 24-799 limits assumed, chain 2 of 2): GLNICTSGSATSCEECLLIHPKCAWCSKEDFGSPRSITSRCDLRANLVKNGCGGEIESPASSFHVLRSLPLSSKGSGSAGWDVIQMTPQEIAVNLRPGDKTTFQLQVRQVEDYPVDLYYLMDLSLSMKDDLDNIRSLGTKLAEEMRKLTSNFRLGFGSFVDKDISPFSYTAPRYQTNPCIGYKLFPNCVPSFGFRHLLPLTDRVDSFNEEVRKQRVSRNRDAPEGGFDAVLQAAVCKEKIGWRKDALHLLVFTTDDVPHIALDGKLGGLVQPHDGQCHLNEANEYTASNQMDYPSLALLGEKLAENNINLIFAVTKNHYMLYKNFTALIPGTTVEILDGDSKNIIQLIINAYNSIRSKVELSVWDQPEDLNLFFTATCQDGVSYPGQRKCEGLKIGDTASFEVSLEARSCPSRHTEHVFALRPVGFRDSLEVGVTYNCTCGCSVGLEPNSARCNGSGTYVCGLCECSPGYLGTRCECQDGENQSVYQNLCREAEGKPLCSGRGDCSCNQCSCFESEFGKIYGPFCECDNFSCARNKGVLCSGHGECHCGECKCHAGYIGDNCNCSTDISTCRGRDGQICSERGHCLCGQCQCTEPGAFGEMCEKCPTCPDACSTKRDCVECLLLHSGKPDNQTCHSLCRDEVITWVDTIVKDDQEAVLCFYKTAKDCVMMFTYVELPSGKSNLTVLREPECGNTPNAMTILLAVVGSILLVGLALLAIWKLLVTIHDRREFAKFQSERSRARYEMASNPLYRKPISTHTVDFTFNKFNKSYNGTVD
T5 sequence (P06756 31-1048 limits assumed, chain 1 of 2): as the sequence (P06756 31-1048 limits assumed, chain 1 of 2) above
T5 sequence (P05556 21-798 limits assumed, chain 2 of 2): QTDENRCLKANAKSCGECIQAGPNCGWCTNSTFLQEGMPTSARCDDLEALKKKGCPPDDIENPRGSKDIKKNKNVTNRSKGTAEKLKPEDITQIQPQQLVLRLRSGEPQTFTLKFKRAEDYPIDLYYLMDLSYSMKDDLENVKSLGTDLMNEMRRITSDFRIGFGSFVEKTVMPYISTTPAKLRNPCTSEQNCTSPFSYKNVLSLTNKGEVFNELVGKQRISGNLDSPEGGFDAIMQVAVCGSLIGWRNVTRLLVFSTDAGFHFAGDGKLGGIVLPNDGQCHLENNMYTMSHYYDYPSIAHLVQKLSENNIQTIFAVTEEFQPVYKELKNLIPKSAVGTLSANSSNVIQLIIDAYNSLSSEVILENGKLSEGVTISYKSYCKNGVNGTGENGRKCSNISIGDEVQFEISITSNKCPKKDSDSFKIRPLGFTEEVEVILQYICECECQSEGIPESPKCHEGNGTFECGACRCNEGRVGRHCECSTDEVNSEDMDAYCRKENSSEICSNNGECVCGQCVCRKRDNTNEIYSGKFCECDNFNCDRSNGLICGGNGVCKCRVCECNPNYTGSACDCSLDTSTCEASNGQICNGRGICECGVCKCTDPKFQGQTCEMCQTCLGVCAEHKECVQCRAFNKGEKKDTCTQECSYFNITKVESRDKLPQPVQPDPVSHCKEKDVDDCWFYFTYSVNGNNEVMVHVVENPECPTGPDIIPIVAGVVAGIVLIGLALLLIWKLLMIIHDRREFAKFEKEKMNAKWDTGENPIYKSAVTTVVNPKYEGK
T1 sequence (P06756 31-1048 limits assumed, chain 1 of 2): as the sequence (P06756 31-1048 limits assumed, chain 1 of 2) above
T1 sequence (P26012 43-769 limits assumed, chain 2 of 2): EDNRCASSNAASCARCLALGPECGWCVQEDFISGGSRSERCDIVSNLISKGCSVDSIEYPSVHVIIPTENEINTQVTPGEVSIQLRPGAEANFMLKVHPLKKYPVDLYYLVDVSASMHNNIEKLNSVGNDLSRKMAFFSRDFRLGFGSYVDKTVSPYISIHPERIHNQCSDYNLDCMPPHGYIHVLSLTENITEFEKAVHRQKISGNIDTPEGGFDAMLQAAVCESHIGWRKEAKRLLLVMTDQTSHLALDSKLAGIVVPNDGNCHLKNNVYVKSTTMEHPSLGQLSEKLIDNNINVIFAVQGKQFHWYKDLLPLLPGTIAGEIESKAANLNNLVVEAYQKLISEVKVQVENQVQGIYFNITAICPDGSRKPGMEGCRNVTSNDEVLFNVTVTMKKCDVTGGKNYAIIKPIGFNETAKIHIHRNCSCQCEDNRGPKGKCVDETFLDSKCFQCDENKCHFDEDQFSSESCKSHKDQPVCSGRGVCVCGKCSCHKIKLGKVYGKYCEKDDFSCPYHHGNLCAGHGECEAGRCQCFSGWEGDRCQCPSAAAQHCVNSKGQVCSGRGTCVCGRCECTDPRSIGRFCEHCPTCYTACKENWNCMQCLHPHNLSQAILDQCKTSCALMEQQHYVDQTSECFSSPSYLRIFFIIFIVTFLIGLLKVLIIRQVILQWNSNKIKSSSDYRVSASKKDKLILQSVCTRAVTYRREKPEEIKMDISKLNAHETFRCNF
T4 sequence (P06756 31-1048 limits assumed, chain 1 of 2): as the sequence (P06756 31-1048 limits assumed, chain 1 of 2) above
T4 sequence (P18564 22-788 limits assumed, chain 2 of 2): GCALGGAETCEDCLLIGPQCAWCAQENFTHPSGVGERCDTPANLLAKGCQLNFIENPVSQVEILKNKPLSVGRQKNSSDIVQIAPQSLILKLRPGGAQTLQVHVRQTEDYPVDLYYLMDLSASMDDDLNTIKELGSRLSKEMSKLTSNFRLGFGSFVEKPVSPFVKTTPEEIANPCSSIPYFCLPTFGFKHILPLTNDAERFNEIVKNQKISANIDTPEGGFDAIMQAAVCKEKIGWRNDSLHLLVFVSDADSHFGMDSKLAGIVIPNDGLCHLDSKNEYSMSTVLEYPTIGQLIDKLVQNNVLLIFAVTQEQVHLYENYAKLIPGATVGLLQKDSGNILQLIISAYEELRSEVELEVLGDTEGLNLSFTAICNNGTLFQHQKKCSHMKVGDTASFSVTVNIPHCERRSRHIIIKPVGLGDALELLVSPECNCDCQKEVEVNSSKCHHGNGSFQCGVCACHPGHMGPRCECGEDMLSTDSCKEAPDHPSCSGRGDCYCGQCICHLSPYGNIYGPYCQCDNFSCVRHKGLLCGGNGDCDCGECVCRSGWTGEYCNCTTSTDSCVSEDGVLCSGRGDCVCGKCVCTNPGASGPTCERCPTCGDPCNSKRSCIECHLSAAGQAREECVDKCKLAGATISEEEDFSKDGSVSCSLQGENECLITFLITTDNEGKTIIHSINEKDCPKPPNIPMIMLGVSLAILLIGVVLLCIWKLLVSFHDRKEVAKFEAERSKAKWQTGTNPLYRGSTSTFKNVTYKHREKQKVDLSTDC

EC50 [1]: 8.9 nM
EC50 [2]: 6.8 nM
IC50, inhibition of CHO cell adhesion to LAP-TGFβ [3]: 4.1 nM
IC50, inhibition of CHO cell adhesion to LAP-TGFβ [4]: 2.1 nM
IC50, inhibition of CHO cell adhesion to LAP-TGFβ [5]: 2.4 nM
IC50, inhibition of CHO cell adhesion to LAP-TGFβ [6]: 1.6 nM
IC50, inhibition of CHO cell adhesion to LAP-TGFβ [7]: 1.3 nM
EC50 [8]: 2.6 nM
EC50 [9]: 1.2 nM
IC50, inhibition of integrin-αvβ1 CHO cell adhesion to LAP-TGFβ (curves in FIG. 12L) [10]: 2.9 nM
EC50 [11]: 1.7 nM
EC50 [12]: 2.6 nM
B1: IgG 11867 (antibody, V domains shown)
VH: EVQLVESGGGLVQPGGSLRLSCAASGFDFDSYAIHWVRQAPGKGLEWVAYFYPGHDYSTYADSVKGRFTISADTSKNTAYLQMNSLRAEDTAVYYCARPSPYFSWHQAMDYWGQGTLVTVSS
VL: DIQMTQSPSSLSASVGDRVTITCRASQSVSSAVAWYQQKPGKAPKLLIYSASSLYSGVPSRFSGSRSGTDFTLTISSLQPEDFATYYCQQATGSEVTFGQGTKVEIKR
notes: also called 11867 hG1

EC50 [13]: 2.39 nM
IC50, inhibition of CHO cell adhesion to LAP-TGFβ [14]: 18.2 nM
IC50, inhibition of CHO cell adhesion to LAP-TGFβ [15]: 24.2 nM
IC50, inhibition of CHO cell adhesion to LAP-TGFβ [16]: 9.83 nM
IC50, inhibition of CHO cell adhesion to LAP-TGFβ [17]: 55.1 nM
adhesion of integrin-αvβ1 CHO cells to LAP-TGFβ, normalised confluence, number over the bar, untreated = 100 [18]: 16.7%
IC50, inhibition of integrin-αvβ1 CHO cell adhesion to LAP-TGFβ; no antibody named on the panel, binder taken from the context of FIG. 10 [19]: 2.91 nM
B2: 10404/10392 (bispecific antibody, human IgG1, kappa)
heavy chain 10392, knob: EVQLVESGGGLVQPGGSLRLSCAASGFNIYYSSIHWVRQAPGKGLEWVASISSSSGSTSYADSVKGRFTISADTSKNTAYLQMNSLRAEDTAVYYCARSYYGGGYPYALDYWGQGTLVTVSSASTKGPSVFPLAPSSKSTSGGTAALGCLVKDYFPEPVTVSWNSGALTSGVHTFPAVLQSSGLYSLSSVVTVPSSSLGTQTYICNVNHKPSNTKVDKKVEPKSCDKTHTCPPCPAPELLGGPSVFLFPPKPKDTLMISRTPEVTCVVVDVSHEDPEVKFNWYVDGVEVHNAKTKPREEQYNSTYRVVSVLTVLHQDWLNGKEYKCKVSNKALPAPIEKTISKAKGQPREPMVFDLPPSREEMTKNQVSLWCMVKGFYPSDIAVEWESNGQPENNYKTTPPVLDSDGSFFLYSKLTVDKSRWQQGNVFSCSVMHEALHNHYTQKSLSLSPGK
heavy chain 10404, hole: EVQLVESGGGLVQPGGSLRLSCAASGFNLYSSSIHWVRQAPGKGLEWVAYIYPSYGYTSTYADSVKGRFTISADTSKNTAYLQMNSLRAEDTAVYYCARPAPYYSWYPAMDYWGQGTLVTVSSASTKGPSVFPLAPSSKSTSGGTAALGCLVKDYFPEPVTVSWNSGALTSGVHTFPAVLQSSGLYSLSSVVTVPSSSLGTQTYICNVNHKPSNTKVDKKVEPKSCDKTHTCPPCPAPELLGGPSVFLFPPKPKDTLMISRTPEVTCVVVDVSHEDPEVKFNWYVDGVEVHNAKTKPREEQYNSTYRVVSVLTVLHQDWLNGKEYKCKVSNKALPAPIEKTISKAKGQPREPQVYTLPPIRELMTSNQVSLSCAVKGFYPSDIAVEWESNGQPENNYKTTPPVLDSDGSFFLVSKLTVDKSRWQQGNVFSCSVMHEALHNHYTQKSLSLSPGK
light chain 10404: DIQMTQSPSSLSASVGDRVTITCRASQSVSSAVAWYQQKPGKAPKLLIYSASSLYSGVPSRFSGSRSGTDFTLTISSLQPEDFATYYCQQASGSPFTFGQGTKVEIKRTVAAPSVFIFPPSDEQLKSGTASVVCLLNNFYPREAKVQWKVDNALQSGNSQESVTEQDSKDSTYSLSSTLTLSKADYEKHKVYACEVTHQGLSSPVTKSFNRGEC
